From patent US20140005126A1 (ISOGENICA, published 2014)
Bridges are numbered along the chain shown (N, C = ends). Where no end group is shown, it is not given here. The star is where a group is joined. Biotin = O=C1N[C@H]2[C@H](CS[C@H]2CCCCC(=O)*)N1

Tests used:
human serum albumin [1] = target: T1, human serum albumin (human, UniProt P02768 25-609); assay: phage ELISA for specificity: 50 ng of each protein coated per well, absorbance at 450 nm; six bars per clone in the order of the legend: VEGFR2, human IgG, monoclonal antibody, enzyme, HSA, blocked well
T1 construct: also called HSA
T1 sequence (P02768 25-609 limits assumed): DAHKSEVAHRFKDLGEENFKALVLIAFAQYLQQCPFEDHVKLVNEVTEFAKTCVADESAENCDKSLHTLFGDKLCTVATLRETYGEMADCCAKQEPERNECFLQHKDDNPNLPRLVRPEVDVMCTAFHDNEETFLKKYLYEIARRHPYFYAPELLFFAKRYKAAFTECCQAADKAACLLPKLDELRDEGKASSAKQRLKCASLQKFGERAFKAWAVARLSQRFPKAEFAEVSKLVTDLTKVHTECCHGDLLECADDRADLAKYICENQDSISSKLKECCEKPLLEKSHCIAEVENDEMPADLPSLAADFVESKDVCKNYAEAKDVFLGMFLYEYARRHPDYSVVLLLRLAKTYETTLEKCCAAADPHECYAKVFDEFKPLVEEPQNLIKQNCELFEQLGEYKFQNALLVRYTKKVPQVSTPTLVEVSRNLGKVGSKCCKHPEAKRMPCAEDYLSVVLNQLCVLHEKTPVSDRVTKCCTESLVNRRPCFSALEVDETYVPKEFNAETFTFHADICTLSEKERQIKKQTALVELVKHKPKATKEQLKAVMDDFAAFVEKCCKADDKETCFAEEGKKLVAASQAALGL
Description: (§1) ELISAs were then performed to screen for modified WW domain peptides that bind to the target ligand. NUNC Maxisorp plates were coated with 50 ng per well of VEGFR2 in PBS overnight at 4° C. After blocking the plates with PBS, 2% BSA, 0.1% Tween-20, phage displaying the selected clones were added, diluted in blocking buffer, and incubated for 1 hour. WW domain binders were detected using horseradish peroxidase-conjugated anti-M13 antibody (GE) and SureBlue TMB peroxidase substrate (Insight Biotechnology, Middlesex, UK); and the ELISA signal was read at 450 nm.
The specificity of clones selected for binding to VEGFR2 was assayed in an ELISA against a selection of non-target peptides/proteins, as described above. 50 ng of each of the different target and non-target proteins was coated per well of and ELISA plate and each of the modified WW domain peptides was added.

VEGFR2-Fc fusion [2] = target: T2, VEGFR2-Fc fusion; assay: phage ELISA: phage-displayed clone on wells coated with 50 ng VEGFR2, anti-M13-HRP, absorbance at 450 nm; control: uncoated blocked wells (light bars)
T2 construct: Bought from R&D Systems
Description: as §1

human serum albumin [3] = target: T1, human serum albumin; assay: phage ELISA: phage-displayed clone on HSA-coated control wells (right bar of each pair), read at 450 nm
Human β-NGF = target: T3, Human β-NGF (human, UniProt P01138 123-240, limits assumed); assay: phage ELISA: phage-displayed clone on NGF-coated wells (left bar of each pair), read at 450 nm; control: HSA-coated wells (right bar)
T3 construct: R&D Systems; It was biotinylated via carboxyl groups for the selection
T3 sequence (P01138 123-240 limits assumed): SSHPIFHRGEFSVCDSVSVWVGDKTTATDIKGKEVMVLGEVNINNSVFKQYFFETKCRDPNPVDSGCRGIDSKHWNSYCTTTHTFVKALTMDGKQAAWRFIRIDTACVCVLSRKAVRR

VEGFR2-Fc fusion [4] = target: T2, VEGFR2-Fc fusion; assay: competition ELISA: inhibition of VEGFR2 binding to coated VEGF by WW-B1-MBP
Description: A competition assay was carried out in which binding of VEGFR2 to VEGF-A (VEGF) was competed by the presence of varying amounts of the selected modified WW domain peptide.
50 ng human VEGF (R&D Systems, Abingdon, UK) 1 μg/ml in PBS was coated per well onto a Maxisorp plate at 37° C. for 140 minutes. The wells were then blocked with 100 μl PBS containing 2% BSA for 55 minutes at room temperature. 1.25 ng VEGFR2 was preincubated with WW-B1 fused to maltose binding protein (MBP) in 50 μl PBS for 45 minutes at room temperature. The activity of the WW-B1 peptide was tested at serial dilutions from 10 μM to 156.25 nM. 50 μl 4% BSA in PBS was added to the preincubated VEGFR2 with WW-B1-MBP and the whole mixture was then added to the VEGF coated ELISA plate and incubated at room temperature for 55 minutes. The plate was then washed with 3 washes in PBS-Tween and 2 washes in PBS. Next 50 μl/well penta His-HRP (QIAgen, diluted 1:500 in 2% BSA in PBS) was added and the mixture incubated at room temperature for 55 minutes, before washing as before. ELISA signals were detected using SureBlue TMB peroxidase substrate (Insight biotechnology, Middlesex, UK) at 450 nm.
As a control, the above process was repeated with wild-type Pin1 WW domain peptide replacing WW-B1. The results are illustrated in FIG. 6.

VEGFR2-Fc fusion [5] = target: T2, VEGFR2-Fc fusion; assay: biolayer interferometry (Octet Red), peptide on streptavidin sensors, steady state analysis; cyclised WW-B1, steady state analysis
Description: Real-time binding assays between the peptides and VEGFR2-Fc fusion were performed using biolayer interferometry with an Octet Red system (Fortebio, Menlo Park, Calif.). WW peptides were immobilised on streptavidin biosensors (Fortebio) at a concentration of 2 μg/ml in kinetic buffer. Association curves were then detected by incubating the immobilised peptide with […] (1 to 100 nM in kinetic buffer), and dissociations were detected by incubating the sensors in kinetic buffer. All of the peptides from the affinity maturation, bind to VEGFR2 with a similar affinity as WW-B1.
The dissociation constant for cyclised WW-B1 binding to VEGFR2 was determined by steady state analysis to be 31 nM±4.8 nM (FIG. 12).

VEGFR2-Fc fusion [6] = target: T2, VEGFR2-Fc fusion; assay: biolayer interferometry (Octet Red), biotinylated WW-B1 on streptavidin sensors, VEGFR2-Fc 1 to 100 nM, steady state analysis
Description: Real time binding assays between chemically synthesised clone WW-B1 and VEGFR2-Fc fusion were performed using biolayer interferometry with an Octet Red system (Fortebio, Menlo Park, Calif.). Biotinylated WW-B1 was immobilised to streptavidin biosensors (Fortebio) at a concentration of 50 ng/μl in PBS. Association curves were then detected by incubating WW-B1-coated sensors with different concentrations of VEGFR2 (1 to 100 nM in PBS), and dissociations were detected by incubating the sensors in PBS. The dissociation constant for WW-B1 binding to VEGFR2 was determined by steady state analysis to be 44 nM±1.1 nM (FIG. 5).

## MADEEKLPPGWGKGWSPRGRVWYTNRTTVAAQWERPSG (designed binder, not shown: large carriers, also: fused to gpIII (M13 phage display), linker not given here) [clone H4, phage-displayed modified Pin1 WW domain peptide]
Human serum albumin [1]
  binding result: no binding
VEGFR2-Fc fusion [2]
  binding result: binds

## MADEEKLPPGWGKPWSARGRVTYINLITVAEQWERPS (designed binder) [NP-E3]
Human serum albumin [3]
  binding result: no binding

## MADEEKLPPGWAVWSPDGRLYYWNSVIVSTRWGRPSC (designed binder, not shown: large carriers, also: fused to gpIII (M13 phage display), linker not given here) [clone NP-A12, phage-displayed modified Pin1 WW domain peptide]
Human β-NGF
  binding result: binds
Human serum albumin [3]
  binding result: no binding

## MADEEKLPPGWYKMWSSPGRVLYVNDITHAHRWERPSG (designed binder, not shown: large carriers, also: fused to gpIII (M13 phage display), linker not given here, also called WW-B1) [clones B1 and H1, phage-displayed modified Pin1 WW domain peptide]
Human serum albumin [1]
  binding result: no binding

## MADEEKLPPGWYKMWSSPGRVLYVNDITHAHRWERPSG (designed binder, not shown: large carriers, also: fused to maltose binding protein (MBP), order and linker not given here, also called WW-B1-MBP) [WW-B1 fused to maltose binding protein (MBP)]
VEGFR2-Fc fusion [4]
  EC50: 76 nM

## MADEEKLPPGWYKMWSSPGRVLYVNDITHAHQWERPSG (designed binder, not shown: large carriers, also: fused to gpIII (M13 phage display), linker not given here) [clones E1, E3, H3, C4, E4, G4 and H6, phage-displayed modified Pin1 WW domain peptide]
Human serum albumin [1]
  binding result: no binding

## MAVEEKLPPGWYKMWSSPGRVLYVNDITHAHQWERPSG (designed binder, not shown: large carriers, also: fused to gpIII (M13 phage display), linker not given here) [clone B4, phage-displayed modified Pin1 WW domain peptide]
VEGFR2-Fc fusion [2]
  binding result: binds

B1: cyclic WW-B1 peptide (Glu38 variant), cyclised through amino acids at positions 6 and 38 (designed binder)
peptide: Biotin-DEEKLPPGWYKMWSSPGRVLYVNDITHAHRWERPEG-NH2
modifications: lactam 4-35
SMILES: CC[C@H](C)[C@@H]1NC(=O)[C@H](CC(=O)O)NC(=O)[C@H](CC(N)=O)NC(=O)[C@H](C(C)C)NC(=O)[C@H](Cc2ccc(O)cc2)NC(=O)[C@H](CC(C)C)NC(=O)[C@H](C(C)C)NC(=O)[C@H](CCCNC(=N)N)NC(=O)CNC(=O)[C@@H]2CCCN2C(=O)[C@H](CO)NC(=O)[C@H](CO)NC(=O)[C@H](Cc2c[nH]c3ccccc23)NC(=O)[C@H](CCSC)NC(=O)[C@H](CCCCN)NC(=O)[C@H](Cc2ccc(O)cc2)NC(=O)[C@H](Cc2c[nH]c3ccccc23)NC(=O)CNC(=O)[C@@H]2CCCN2C(=O)[C@@H]2CCCN2C(=O)[C@H](CC(C)C)NC(=O)[C@@H](NC(=O)[C@H](CCC(=O)O)NC(=O)[C@H](CCC(=O)O)NC(=O)[C@H](CC(=O)O)NC(=O)CCCC[C@@H]2SC[C@@H]3NC(=O)N[C@@H]32)CCCCNC(=O)CC[C@@H](C(=O)NCC(N)=O)NC(=O)[C@@H]2CCCN2C(=O)[C@H](CCCNC(=N)N)NC(=O)[C@H](CCC(=O)O)NC(=O)[C@H](Cc2c[nH]c3ccccc23)NC(=O)[C@H](CCCNC(=N)N)NC(=O)[C@H](Cc2c[nH]cn2)NC(=O)[C@H](C)NC(=O)[C@H](Cc2c[nH]cn2)NC(=O)[C@H]([C@@H](C)O)NC1=O
notes: also called cyclised WW-B1
VEGFR2-Fc fusion [5]
  Kd: 31 nM

B2: WW-B1 VEGFR2 WW domain, chemically synthesised, biotinylated (linear) (designed binder)
peptide: Biotin-MADEEKLPPGWYKMWSSPGRVLYVNDITHAHRWERPSG
modifications: not fully specified
notes: Modified Pin1 WW domain; also called linear WW-B1; clone WW-B1
VEGFR2-Fc fusion [6]
  Kd: 44 nM

## MADEEKLPPGWTVWSPNGRVYYWNSITVARQWERPSG (designed binder, not shown: large carriers, also: fused to gpIII (M13 phage display), linker not given here) [clone NP-H8, phage-displayed modified Pin1 WW domain peptide]
Human β-NGF
  binding result: binds
Human serum albumin [3]
  binding result: no binding

## MADEEKLPPGWCKFWSTAGRVIYINRITGAKQWERPSG (designed binder, not shown: large carriers, also: fused to gpIII (M13 phage display), linker not given here) [clone A1, phage-displayed modified Pin1 WW domain peptide]
Human serum albumin [1]
  binding result: no binding
